Key:
[1] = biological target: PqsD (Pseudomonas aeruginosa); experiment: SEC-MALS
[2] = biological target: PqsD (Pseudomonas aeruginosa); experiment: AUC

Substance PqsD (enzyme) has a stoichiometry N [1] of 2 and a stoichiometry N [2] of 2.
